Key:
Assay in all cases: cell-based or functional assay
[1] = biological target: HIV-1 Env of isolate MGRM-AE-005 (subtype AE) (HIV-1)
[2] = biological target: HIV-1 Env of isolate MGRM-D-003 (pseudovirus) (HIV-1)
[3] = biological target: HIV-1 Env of isolate MGRM-A-011 (subtype A) (HIV-1)
[4] = biological target: HIV-1 JR-CSF Env E466A (HIV-1 (isolate JR-CSF)) (UniProt P20871)
[5] = biological target: HIV-1 Env of isolate MGRM-A-010 (subtype A) (HIV-1)
[6] = biological target: HIV-1 Env of isolate MGRM-D-011 (pseudovirus) (HIV-1)
[7] = biological target: HIV-1 JR-CSF Env I423A (I4234 in the source) (HIV-1 (isolate JR-CSF)) (UniProt P20871)
[8] = biological target: HIV-1 Env of pseudovirus isolate MGRM-C-007 (clade C) (HIV-1)
[9] = biological target: HIV-1 Env of isolate MGRM-D-002 (pseudovirus) (HIV-1)
[10] = biological target: HIV-1 Env of isolate MGRM-F1-004 (HIV-1)
[11] = biological target: HIV-1 Env of isolate 92UG001 (pseudovirus) (HIV-1)
[12] = biological target: HIV-1 Env of isolate MG RM-A-010 (pseudovirus) (HIV-1)
[13] = biological target: HIV-1 Env of isolate MGRM-C-015 (subtype C), on pseudovirus (HIV-1)
[14] = biological target: HIV-1 Env of isolate MG RM-A-007 (pseudovirus) (HIV-1)
[15] = biological target: HIV-1 Env of isolate 92RW009 (subtype A) (HIV-1)
[16] = biological target: HIV-1 Env of isolate MG RM-A-006 (pseudovirus) (HIV-1)
[17] = biological target: HIV-1 Env of isolate 92UG114 (HIV-1)
[18] = biological target: HIV-1 envelope glycoprotein (Env) of isolate MG RM-AG-002 (HIV-1)
[19] = biological target: HIV-1 Env of pseudovirus MGRM-F1-006 (HIV-1)
[20] = biological target: HIV-1 Env of pseudovirus MGRM-F1-016 (HIV-1)
[21] = biological target: HIV-1 envelope glycoprotein (Env) of isolate MG RM-AG-009 (HIV-1)

Sequence of PGT-145 (4995_P16) (antibody) (VH): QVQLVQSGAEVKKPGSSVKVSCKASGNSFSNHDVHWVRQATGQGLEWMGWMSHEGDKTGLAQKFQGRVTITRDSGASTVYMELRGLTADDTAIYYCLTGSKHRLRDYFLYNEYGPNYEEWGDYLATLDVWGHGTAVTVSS
Sequence of PGT-145 (4995_P16) (antibody) (VL): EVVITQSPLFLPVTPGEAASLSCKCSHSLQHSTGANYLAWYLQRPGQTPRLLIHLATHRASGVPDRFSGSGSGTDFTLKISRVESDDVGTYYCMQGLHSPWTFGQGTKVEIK
Sequence of 4980_N08 (PGT-143) (antibody) (VH): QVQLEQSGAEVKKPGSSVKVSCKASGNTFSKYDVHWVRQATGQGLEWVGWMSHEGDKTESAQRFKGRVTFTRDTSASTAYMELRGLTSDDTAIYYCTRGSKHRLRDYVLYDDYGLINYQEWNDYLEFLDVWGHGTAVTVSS
Sequence of 4980_N08 (PGT-143) (antibody) (VL): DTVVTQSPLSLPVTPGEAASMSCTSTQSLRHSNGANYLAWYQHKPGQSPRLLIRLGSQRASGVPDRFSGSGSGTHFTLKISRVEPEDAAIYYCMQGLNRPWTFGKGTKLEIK
Sequence of 5329_C19 (PGT-136) (antibody) (VH): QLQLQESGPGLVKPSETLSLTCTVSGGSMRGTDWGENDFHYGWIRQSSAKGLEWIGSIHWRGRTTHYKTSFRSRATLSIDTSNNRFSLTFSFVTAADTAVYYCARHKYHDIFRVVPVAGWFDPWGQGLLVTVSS
Sequence of 5329_C19 (PGT-136) (antibody) (VL): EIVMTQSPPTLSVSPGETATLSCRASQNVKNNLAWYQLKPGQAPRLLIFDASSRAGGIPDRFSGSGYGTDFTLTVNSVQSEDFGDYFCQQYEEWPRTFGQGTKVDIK
Sequence of PGT-141 (4964_G22; 4993_K13) (antibody) (VH): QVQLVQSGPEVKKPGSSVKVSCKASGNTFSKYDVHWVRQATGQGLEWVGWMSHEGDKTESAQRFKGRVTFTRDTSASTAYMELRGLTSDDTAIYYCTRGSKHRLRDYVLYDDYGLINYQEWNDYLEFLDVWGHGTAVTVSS
Sequence of PGT-141 (4964_G22; 4993_K13) (antibody) (VL): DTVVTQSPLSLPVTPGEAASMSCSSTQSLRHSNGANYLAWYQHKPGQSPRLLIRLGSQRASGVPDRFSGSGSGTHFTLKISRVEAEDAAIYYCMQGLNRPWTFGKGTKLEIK
Sequence of 4970_K22 (PGT-144) (antibody) (VH): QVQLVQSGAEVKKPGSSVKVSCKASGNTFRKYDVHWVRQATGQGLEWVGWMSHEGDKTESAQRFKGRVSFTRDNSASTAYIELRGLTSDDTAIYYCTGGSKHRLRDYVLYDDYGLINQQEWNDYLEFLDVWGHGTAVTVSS
Sequence of 4970_K22 (PGT-144) (antibody) (VL): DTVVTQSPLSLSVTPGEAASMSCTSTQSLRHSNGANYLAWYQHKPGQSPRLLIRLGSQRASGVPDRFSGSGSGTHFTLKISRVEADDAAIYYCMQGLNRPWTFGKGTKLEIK
Sequence of 4995_E20 (PGT-142) (antibody) (VH): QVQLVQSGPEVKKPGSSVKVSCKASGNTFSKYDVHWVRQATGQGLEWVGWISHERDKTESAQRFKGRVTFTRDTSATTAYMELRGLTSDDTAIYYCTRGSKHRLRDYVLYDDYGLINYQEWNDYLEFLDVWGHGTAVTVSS

5147_N06 (PGT-130) (antibody) was tested, and the IC50, pseudovirus neutralization [1] was 0.006 µg/mL, the IC50 (µg/mL), pseudovirus neutralization [2] was 0.651 µg/mL and the IC50, pseudovirus neutralization [3] was > 50 µg/mL. The Fold IC50 increase relative to wild-type (pseudovirus neutralization) [4] was 1.7 fold, the IC50, pseudovirus neutralization [5] was 0.005 µg/mL and the IC50 (µg/mL), pseudovirus neutralization [6] was 0.019 µg/mL. For the same substance, the Fold IC50 increase relative to wild-type (pseudovirus neutralization) [7] was > 1000 fold, the IC50, pseudovirus neutralization [8] was > 50 µg/mL and the IC50 (µg/mL), pseudovirus neutralization [9] was 0.869 µg/mL. The IC50 (µg/mL), pseudovirus neutralization [10] was 0.023 µg/mL and the IC50 (µg/mL), pseudovirus neutralization [11] was > 50 µg/mL.
For 4995_P16 (PGT-145) (antibody), the IC50 (µg/mL), single-round pseudovirus neutralization [12] was 0.028 µg/mL, the IC50, single-round pseudovirus neutralization [13] was 0.12 µg/mL and the IC50 (µg/mL), single-round pseudovirus neutralization [14] was > 50 µg/mL. For the same substance, the IC50, pseudovirus neutralization [15] was 0.026 µg/mL, the IC50 (µg/mL), single-round pseudovirus neutralization [16] was > 50 µg/mL and the IC50 (µg/mL), pseudovirus neutralization [17] was 20.1 µg/mL.
In the case of PGT-141 (4964_G22; 4993_K13) (antibody), the IC50 [18] is reported as 0.049 µg/mL, the IC50, pseudovirus neutralization [19] is reported as 8.99 µg/mL and the IC50, pseudovirus neutralization [20] is reported as > 50 µg/mL. The IC50 [21] was > 50 µg/mL.
For 4970_K22 (PGT-144) (antibody), the IC50 (µg/mL), single-round pseudovirus neutralization [12] was 2.79 µg/mL, the IC50, single-round pseudovirus neutralization [13] was 0.236 µg/mL and the IC50 (µg/mL), single-round pseudovirus neutralization [14] was > 50 µg/mL. The IC50, pseudovirus neutralization [15] was 0.893 µg/mL, the IC50 (µg/mL), single-round pseudovirus neutralization [16] was > 50 µg/mL and the IC50 (µg/mL), pseudovirus neutralization [17] was > 50 µg/mL.
With PGT-142 (4995_E20) (antibody) the IC50 [18] was 0.044 µg/mL, the IC50, pseudovirus neutralization [19] was 12.9 µg/mL and the IC50, pseudovirus neutralization [20] was > 50 µg/mL. For the same substance, the IC50 [21] was > 50 µg/mL.
5329_C19 (PGT-136) (antibody) was tested, and the IC50, pseudovirus neutralization [1] was > 50 µg/mL, the IC50 (µg/mL), pseudovirus neutralization [2] was > 50 µg/mL and the IC50, pseudovirus neutralization [3] was > 50 µg/mL. The IC50, pseudovirus neutralization [5] was > 50 µg/mL, the IC50 (µg/mL), pseudovirus neutralization [6] was > 50 µg/mL and the IC50, pseudovirus neutralization [8] was > 50 µg/mL. The IC50 (µg/mL), pseudovirus neutralization [9] was > 50 µg/mL, the IC50 (µg/mL), pseudovirus neutralization [10] was > 50 µg/mL and the IC50 (µg/mL), pseudovirus neutralization [11] was > 50 µg/mL.
Substance PGT-145 (4995_P16) (antibody) has an IC50 [18] of 0.056 µg/mL, an IC50, pseudovirus neutralization [19] of 13.6 µg/mL and an IC50, pseudovirus neutralization [20] of 17.5 µg/mL. The IC50 [21] was > 50 µg/mL.
In the case of 5343_B08 (PGT-135) (antibody), the IC50, pseudovirus neutralization [1] is reported as > 50 µg/mL, the IC50 (µg/mL), pseudovirus neutralization [2] is reported as > 50 µg/mL and the IC50, pseudovirus neutralization [3] is reported as > 50 µg/mL. For the same substance, the Fold IC50 increase relative to wild-type (pseudovirus neutralization) [4] was 0.5 fold, the IC50, pseudovirus neutralization [5] was > 50 µg/mL and the IC50 (µg/mL), pseudovirus neutralization [6] was 23.5 µg/mL. For the same substance, the Fold IC50 increase relative to wild-type (pseudovirus neutralization) [7] was 0.1 fold, the IC50, pseudovirus neutralization [8] was > 50 µg/mL and the IC50 (µg/mL), pseudovirus neutralization [9] was > 50 µg/mL. For the same substance, the IC50 (µg/mL), pseudovirus neutralization [10] was 0.211 µg/mL and the IC50 (µg/mL), pseudovirus neutralization [11] was > 50 µg/mL.
For 4995_E20 (PGT-142) (antibody), the IC50 (µg/mL), single-round pseudovirus neutralization [12] was 0.015 µg/mL, the IC50, single-round pseudovirus neutralization [13] was 0.038 µg/mL and the IC50 (µg/mL), single-round pseudovirus neutralization [14] was > 50 µg/mL. The IC50, pseudovirus neutralization [15] was 0.006 µg/mL, the IC50 (µg/mL), single-round pseudovirus neutralization [16] was > 50 µg/mL and the IC50 (µg/mL), pseudovirus neutralization [17] was > 50 µg/mL.
PGT-143 (4980_N08) (antibody) was tested, and the IC50 [18] was 0.076 µg/mL, the IC50, pseudovirus neutralization [19] was 12.3 µg/mL and the IC50, pseudovirus neutralization [20] was > 50 µg/mL. The IC50 [21] was > 50 µg/mL.
In the case of 5114_A19 (PGT-128) (antibody), the IC50, pseudovirus neutralization [1] is reported as 0.032 µg/mL, the IC50 (µg/mL), pseudovirus neutralization [2] is reported as 0.019 µg/mL and the IC50, pseudovirus neutralization [3] is reported as > 50 µg/mL. It also gave a Fold IC50 increase relative to wild-type (pseudovirus neutralization) [4] of 0.6 fold, an IC50, pseudovirus neutralization [5] of 0.005 µg/mL and an IC50 (µg/mL), pseudovirus neutralization [6] of 0.007 µg/mL. The Fold IC50 increase relative to wild-type (pseudovirus neutralization) [7] was 2.6 fold, the IC50, pseudovirus neutralization [8] was 0.111 µg/mL and the IC50 (µg/mL), pseudovirus neutralization [9] was 0.011 µg/mL. The IC50 (µg/mL), pseudovirus neutralization [10] was 0.027 µg/mL and the IC50 (µg/mL), pseudovirus neutralization [11] was > 50 µg/mL.
With PGT-144 (4970_K22) (antibody) the IC50 [18] was 7.78 µg/mL, the IC50, pseudovirus neutralization [19] was 20.6 µg/mL and the IC50, pseudovirus neutralization [20] was > 50 µg/mL. The IC50 [21] was > 50 µg/mL.
VRC01 (antibody) gave an IC50 (µg/mL), single-round pseudovirus neutralization [12] of 0.325 µg/mL, an IC50, single-round pseudovirus neutralization [13] of 1.57 µg/mL and an IC50 [18] of 0.95 µg/mL. It also gave an IC50 (µg/mL), single-round pseudovirus neutralization [14] of 12.6 µg/mL, an IC50, pseudovirus neutralization [15] of 0.187 µg/mL and an IC50 (µg/mL), single-round pseudovirus neutralization [16] of 0.521 µg/mL. It also gave an IC50, pseudovirus neutralization [19] of 2.86 µg/mL, an IC50 (µg/mL), pseudovirus neutralization [17] of 0.33 µg/mL and an IC50, pseudovirus neutralization [20] of 0.517 µg/mL. For the same substance, the IC50 [21] was > 50 µg/mL.
For 4980_N08 (PGT-143) (antibody), the IC50 (µg/mL), single-round pseudovirus neutralization [12] was 0.019 µg/mL, the IC50, single-round pseudovirus neutralization [13] was 0.085 µg/mL and the IC50 (µg/mL), single-round pseudovirus neutralization [14] was > 50 µg/mL. For the same substance, the IC50, pseudovirus neutralization [15] was 0.01 µg/mL, the IC50 (µg/mL), single-round pseudovirus neutralization [16] was > 50 µg/mL and the IC50 (µg/mL), pseudovirus neutralization [17] was > 50 µg/mL.
4993_K13 (PGT-141) (antibody) was tested, and the IC50 (µg/mL), single-round pseudovirus neutralization [12] was 0.022 µg/mL, the IC50, single-round pseudovirus neutralization [13] was 0.033 µg/mL and the IC50 (µg/mL), single-round pseudovirus neutralization [14] was > 50 µg/mL. The IC50, pseudovirus neutralization [15] was 0.022 µg/mL, the IC50 (µg/mL), single-round pseudovirus neutralization [16] was > 50 µg/mL and the IC50 (µg/mL), pseudovirus neutralization [17] was > 50 µg/mL.
With 5136_H01 (PGT-131) (antibody) the IC50, pseudovirus neutralization [1] was 0.017 µg/mL, the IC50 (µg/mL), pseudovirus neutralization [2] was 19.6 µg/mL and the IC50, pseudovirus neutralization [3] was > 50 µg/mL. It also gave a Fold IC50 increase relative to wild-type (pseudovirus neutralization) [4] of 1.7 fold, an IC50, pseudovirus neutralization [5] of 0.01 µg/mL and an IC50 (µg/mL), pseudovirus neutralization [6] of 0.756 µg/mL. For the same substance, the Fold IC50 increase relative to wild-type (pseudovirus neutralization) [7] was > 80 fold, the IC50, pseudovirus neutralization [8] was > 50 µg/mL and the IC50 (µg/mL), pseudovirus neutralization [9] was 11.2 µg/mL. The IC50 (µg/mL), pseudovirus neutralization [10] was 0.114 µg/mL and the IC50 (µg/mL), pseudovirus neutralization [11] was > 50 µg/mL.

Source: patent US20240132578A1
